Target: T1, CD46 (human, UniProt P15529 35-392)
T1 construct: whole, on cells; also called CD46 complement regulatory protein; cluster of differentiation 46
T1 sequence (looked up): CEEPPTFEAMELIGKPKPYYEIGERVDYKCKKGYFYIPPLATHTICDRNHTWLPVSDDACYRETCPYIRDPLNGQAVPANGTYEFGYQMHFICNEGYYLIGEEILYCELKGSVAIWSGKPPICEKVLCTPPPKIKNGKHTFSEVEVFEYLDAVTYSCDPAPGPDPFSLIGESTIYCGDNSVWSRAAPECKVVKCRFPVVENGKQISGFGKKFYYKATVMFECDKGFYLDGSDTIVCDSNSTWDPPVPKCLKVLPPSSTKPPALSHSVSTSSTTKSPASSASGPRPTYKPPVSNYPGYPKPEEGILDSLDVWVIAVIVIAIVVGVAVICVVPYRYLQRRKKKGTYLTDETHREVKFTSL
Assay: flow cytometry on cells, YS5FL at 10 µg/mL, AlexaFluor-488 anti-human IgG1 Fc secondary
Description: Cell surface CD46 was detected by flow cytometry. Cells were harvested, centrifuged and resuspended in FACS buffer (PBS+2% FBS) at a concentration of 1×10⁶ cells/mL. 100 μL of cell suspension was dispensed into each well of a 96-well plate, 100 μL of YS5FL at 10 μg/mL was added to the wells and incubated for 1 hour at 4° C. The cells were washed three times with FACS buffer. After the third wash, the cells were resuspended in 100 μL 1:500 diluted AlexaFluor-488 mouse anti-Human IgG1 Fc secondary antibody and incubated for 1 hour at 4° C. in the dark. The cells were washed three times with 200 μL PBS by centrifuging at 2000 RPM for 5 minutes. After the last wash, the cells were resuspended in 300 μL cold PBS and analyzed on a FACSVerse™ (BD Biosciences) flow cytometer. YS5FL bound specifically to the surface of LnCap-C4-2B, LnCap-C4, DU145, PC3-luc, and Hs27 prostate cancer cells, but not to non-tumor BPH1 cells. FIG. 1. Likewise, YS5FL bound specifically to the surface of RPMI8226, MM.1S, MM.1R, and INA6 multiple myeloma cells. FIG. 2.

binding result: binds
B1: YS5FL (antibody, human IgG1, lambda, V domains shown)
VH: QVQLVQSGGGVVQPGRSLRLACAASGLTVNNYAMHWVRQAPGKGLEWVAVISYDGNNKYYADSVKGRFTISRDNSKNTLYLQMNSLRAEDTAVYYCAKGGGYFDLWGRGTLVTVSS
VL: QSVLTQPPSVSGAPGQRVTISCTGSSSNIGAGYDVHWYQQLPGTAPKLLIYGNNNRPSGVPDRFSGSKSGTSASLAITGLQAEDEADYYCSSYTSGTWLFGGGTKLTVLG
notes: FOR46 is this antibody conjugated to MMAE via mc-vc-PAB; also called anti-CD46 YS5FL antibody; YS5FL mAb

— US20220047712A1 (FORTIS THERAPEUTICS, published 2022)
